This note sets out measurements from patent US20190137523A1 (Hoffmann-La Roche, published 2019).

In the assay the target is T1, VEGF-A 121 (Peprotech), dimeric (human, UniProt P15692-9 27-147).
T1 construct: also called VEGF121
T1 sequence (looked up): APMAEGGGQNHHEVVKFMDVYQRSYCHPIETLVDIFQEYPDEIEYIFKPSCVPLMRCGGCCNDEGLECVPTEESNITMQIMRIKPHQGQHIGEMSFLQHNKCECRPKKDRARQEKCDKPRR
Nature of the assay: SPR (Biacore T200), consecutive injections. VEGF-A 121 is displayed by captured rH-4.6.1-IgG (Avastin) and saturated again with rH-4.6.1-IgG. Setup as printed: rH-4.6.1-IgG*VEGF-A*rH4.6.1*Ab1*Ab2. The method, then: The sample buffer was the system buffer supplemented with 1 mg/ml CMD (Carboxymethyldextran, Sigma #86524). The system operated at 25° C.
A general note: Surface plasmon resonance follows binding to a sensor surface in real time, without labels.

B1: 13.7.40-Ru (antibody, V domains shown)
VH: QAQLQQPGAELVKPGASVNLSCKASGYTFTNYWIHWVSQRPGQGLEWIGEINPSDGRTYYNEKFKNKVILTVDEASTTAYLQLSSLTSEDSAVYYCTSRYYIYGVDYWGQGTTLTVSS
VL: SIVMTQTPKFLLVSPGDRVTITCKASQSVGHDVSWYRQKPGQSPKVLIYYASNRYTGVPDRFTGSGYGTDFTFTVRSVRTEDLAVYFCQQDYTSPLTFGTGTKLELKR
notes: Tested as a ruthenylated conjugate
On to B1, for which the binding result is “binds”.
